The text below walks through data of article PMC4434323.

In data set [1] the target is T1, ztf-29 (Y66D12A.12) (Caenorhabditis elegans) (UniProt Q95Q03).
T1 sequence: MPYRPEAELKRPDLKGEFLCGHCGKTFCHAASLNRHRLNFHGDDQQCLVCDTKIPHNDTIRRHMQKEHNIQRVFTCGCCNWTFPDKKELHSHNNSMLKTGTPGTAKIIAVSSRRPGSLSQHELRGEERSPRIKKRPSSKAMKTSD

For data set [2], the target named is ztf-11 (F52F12.6) (Caenorhabditis elegans) (UniProt O02274).
Data set [3] concerns T2, syd-9 (ZK867.1) (Caenorhabditis elegans).
T2 sequence: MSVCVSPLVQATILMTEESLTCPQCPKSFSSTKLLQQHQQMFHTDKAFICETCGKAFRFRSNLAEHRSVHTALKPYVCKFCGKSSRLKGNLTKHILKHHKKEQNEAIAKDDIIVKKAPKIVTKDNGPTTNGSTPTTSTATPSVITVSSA

The target in data set [4] is T3, egrh-3 (Y94H6A.11) (Caenorhabditis elegans) (UniProt U4PLQ8).
T3 sequence: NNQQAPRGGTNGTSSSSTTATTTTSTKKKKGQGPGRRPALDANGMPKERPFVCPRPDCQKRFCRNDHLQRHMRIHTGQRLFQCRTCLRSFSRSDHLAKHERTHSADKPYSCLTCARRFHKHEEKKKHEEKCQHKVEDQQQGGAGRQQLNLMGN

The target of data set [5] is T4, C27D6.4 (C27D6.4) (Caenorhabditis elegans) (UniProt Q4JFH9).
T4 sequence: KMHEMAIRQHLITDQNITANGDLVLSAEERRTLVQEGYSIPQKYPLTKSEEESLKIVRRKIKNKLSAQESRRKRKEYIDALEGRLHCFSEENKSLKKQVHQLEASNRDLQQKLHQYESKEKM

For data set [6], the target named is T5, ZK337.2 (ZK337.2) (Caenorhabditis elegans) (UniProt O46016).
T5 sequence: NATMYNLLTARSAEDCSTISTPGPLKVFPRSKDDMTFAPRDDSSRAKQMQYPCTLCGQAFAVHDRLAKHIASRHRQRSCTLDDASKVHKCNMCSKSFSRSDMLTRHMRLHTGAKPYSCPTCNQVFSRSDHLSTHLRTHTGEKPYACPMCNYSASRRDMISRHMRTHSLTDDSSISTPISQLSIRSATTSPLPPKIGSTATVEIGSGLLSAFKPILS

Data set [7] has as its target ZC328.2 (ZC328.2) (Caenorhabditis elegans) (UniProt O02050).
For data set [8], the target named is T6, Y53H1A.2 (Y53H1A.2) (Caenorhabditis elegans) (UniProt B1V8K4).
T6 sequence: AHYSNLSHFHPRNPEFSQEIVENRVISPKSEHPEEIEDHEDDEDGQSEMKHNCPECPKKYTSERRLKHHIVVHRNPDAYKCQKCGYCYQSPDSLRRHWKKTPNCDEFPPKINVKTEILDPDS

Sequence of ztf-11 (F52F12.6) (Caenorhabditis elegans) (O02274 212-388): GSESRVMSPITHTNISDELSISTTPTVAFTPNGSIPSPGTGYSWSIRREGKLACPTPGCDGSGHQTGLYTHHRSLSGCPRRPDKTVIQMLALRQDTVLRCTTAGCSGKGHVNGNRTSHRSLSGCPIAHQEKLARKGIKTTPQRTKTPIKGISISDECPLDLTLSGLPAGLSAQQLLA
Sequence of ZC328.2 (ZC328.2) (Caenorhabditis elegans) (O02050 entry or part of it): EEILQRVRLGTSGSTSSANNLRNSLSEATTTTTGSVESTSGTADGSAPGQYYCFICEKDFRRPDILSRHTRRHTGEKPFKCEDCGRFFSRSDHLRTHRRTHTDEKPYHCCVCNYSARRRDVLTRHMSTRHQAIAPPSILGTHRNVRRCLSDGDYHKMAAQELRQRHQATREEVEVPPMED

For the sequence “AAAAGCTT (double strand) [8-mer AAAAGCTT]”, in data set [1], the binding signal (PBM E-score (-0.5 to 0.5)) was 0.492.
Sequence “AAAAGTTT (double strand) [8-mer AAAAGTTT]” showed a binding signal (PBM E-score (-0.5 to 0.5)) in data set [2] of 0.492.
As for “AAACTTCG (double strand) [8-mer AAACTTCG]”, the binding signal (PBM E-score (-0.5 to 0.5)) in data set [2] turned out to be 0.487.
On the same count and under the same terms, with “AAACTTGC (double strand) [8-mer AAACTTGC]” the figure was 0.485; with “AAACTTTG (double strand) [8-mer AAACTTTG]”, 0.481.
The same measure, in the same setting: with “AAAGTTTG (double strand) [8-mer AAAGTTTG]” the figure was 0.494.
In the case of “AACTGTAC (double strand) [8-mer AACTGTAC]”, the binding signal (PBM E-score (-0.5 to 0.5)) in data set [3] stood at 0.492.
As for “AACTTTTG (double strand) [8-mer AACTTTTG]”, the binding signal (PBM E-score (-0.5 to 0.5)) in data set [2] was found to be 0.48.
Sequence “AAGCTTGT (double strand) [8-mer AAGCTTGT]” had a binding signal (PBM E-score (-0.5 to 0.5)) in data set [1] of 0.489.
On to “AAGGGGGG (double strand) [8-mer AAGGGGGG]”, for which, in data set [4], the binding signal (PBM E-score (-0.5 to 0.5)) stood at 0.495.
With “AAGTTTCG (double strand) [8-mer AAGTTTCG]”, the binding signal (PBM E-score (-0.5 to 0.5)) in data set [2] came to 0.483.
On the same count and under the same terms, as for “AAGTTTGA (double strand) [8-mer AAGTTTGA]”, the figure is 0.48; as for “AAGTTTGC (double strand) [8-mer AAGTTTGC]”, 0.483; as for “AAGTTTGG (double strand) [8-mer AAGTTTGG]”, 0.485.
Same read-out and setting: as for “AAGTTTGT (double strand) [8-mer AAGTTTGT]”, the figure is 0.487.
The same measure, in the same setting: as for “AAGTTTTC (double strand) [8-mer AAGTTTTC]”, the figure is 0.48.
As to “ACACGTGG (double strand) [8-mer ACACGTGG]”, in data set [5], the binding signal (PBM E-score (-0.5 to 0.5)) turned out to be 0.498.
The sequence “ACACGTGT (double strand) [8-mer ACACGTGT]” came in with a binding signal (PBM E-score (-0.5 to 0.5)) in data set [5] of 0.497.
The sequence “ACCCCCCC (double strand) [8-mer ACCCCCCC]” registered a binding signal (PBM E-score (-0.5 to 0.5)) in data set [4] of 0.497.
On to “ACGTGGAT (double strand) [8-mer ACGTGGAT]”, for which the binding signal (PBM E-score (-0.5 to 0.5)) in data set [5] amounted to 0.492.
Sequence “ACGTGGCG (double strand) [8-mer ACGTGGCG]” showed a binding signal (PBM E-score (-0.5 to 0.5)) in data set [5] of 0.498.
On the same count and under the same terms, as for “ACGTGTCA (double strand) [8-mer ACGTGTCA]”, the figure is 0.495.
In turn, “ACTGTAAT (double strand) [8-mer ACTGTAAT]” gave a binding signal (PBM E-score (-0.5 to 0.5)) in data set [3] of 0.489.
Consider “ACTGTACA (double strand) [8-mer ACTGTACA]”, for which the binding signal (PBM E-score (-0.5 to 0.5)) in data set [3] came out at 0.494.
On the same count and under the same terms, as for “ACTGTACC (double strand) [8-mer ACTGTACC]”, the figure is 0.489.
The same measure, in the same setting: with “ACTGTACG (double strand) [8-mer ACTGTACG]” the figure was 0.491.
Consider “AGGGGGAG (double strand) [8-mer AGGGGGAG]”, for which, in data set [4], the binding signal (PBM E-score (-0.5 to 0.5)) was found to be 0.493.
With “AGGGGGGA (double strand) [8-mer AGGGGGGA]”, the binding signal (PBM E-score (-0.5 to 0.5)) in data set [4] came out at 0.493.
Regarding “AGGGGGGG (double strand) [8-mer AGGGGGGG]”, in data set [4], the binding signal (PBM E-score (-0.5 to 0.5)) was 0.498.
“CAAACTTC (double strand) [8-mer CAAACTTC]” returned a binding signal (PBM E-score (-0.5 to 0.5)) in data set [2] of 0.48.
In data set [2], “CAAACTTG (double strand) [8-mer CAAACTTG]” showed a binding signal (PBM E-score (-0.5 to 0.5)) of 0.487.
For the sequence “CACCCACG (double strand) [8-mer CACCCACG]”, the binding signal (PBM E-score (-0.5 to 0.5)) in data set [6] came out at 0.484.
The same measure, in the same setting: as for “CACCCCCA (double strand) [8-mer CACCCCCA]”, the figure is 0.482.
On to “CACGTGGA (double strand) [8-mer CACGTGGA]”, for which, in data set [5], the binding signal (PBM E-score (-0.5 to 0.5)) amounted to 0.495.
In turn, “CACGTGTA (double strand) [8-mer CACGTGTA]” yielded a binding signal (PBM E-score (-0.5 to 0.5)) in data set [5] of 0.494.
For “CACGTGTC (double strand) [8-mer CACGTGTC]”, in data set [5], the binding signal (PBM E-score (-0.5 to 0.5)) is 0.496.
As to “CCACCCAC (double strand) [8-mer CCACCCAC]”, the binding signal (PBM E-score (-0.5 to 0.5)) in data set [6] turned out to be 0.491.
“CCACCCCC (double strand) [8-mer CCACCCCC]” showed a binding signal (PBM E-score (-0.5 to 0.5)) in data set [6] of 0.485.
The sequence “CCCCACGC (double strand) [8-mer CCCCACGC]” yielded a binding signal (PBM E-score (-0.5 to 0.5)) in data set [7] of 0.485.
Still for that read-out and setting: as for “CCCCCACG (double strand) [8-mer CCCCCACG]”, the figure is 0.48.
The sequence “CCCCCCAC (double strand) [8-mer CCCCCCAC]” displayed a binding signal (PBM E-score (-0.5 to 0.5)) in data set [4] of 0.495.
With “CCCCCCCA (double strand) [8-mer CCCCCCCA]”, in data set [4], the binding signal (PBM E-score (-0.5 to 0.5)) turned out to be 0.496.
In data set [4], “CCCCCCCC (double strand) [8-mer CCCCCCCC]” showed a binding signal (PBM E-score (-0.5 to 0.5)) of 0.5.
For the sequence “CCCCCCGC (double strand) [8-mer CCCCCCGC]”, the binding signal (PBM E-score (-0.5 to 0.5)) in data set [7] worked out at 0.486.
The sequence “CCCCCCTC (double strand) [8-mer CCCCCCTC]” returned a binding signal (PBM E-score (-0.5 to 0.5)) in data set [4] of 0.497.
“CCGCCCCC (double strand) [8-mer CCGCCCCC]” returned a binding signal (PBM E-score (-0.5 to 0.5)) in data set [6] of 0.495.
Take “CCGCCTAC (double strand) [8-mer CCGCCTAC]”: the binding signal (PBM E-score (-0.5 to 0.5)) in data set [7] was 0.488.
“CCTCCCCC (double strand) [8-mer CCTCCCCC]”: the binding signal (PBM E-score (-0.5 to 0.5)) in data set [4] was found to be 0.496.
“CGCCCACA (double strand) [8-mer CGCCCACA]” yielded a binding signal (PBM E-score (-0.5 to 0.5)) in data set [6] of 0.484.
For “CGCCCACC (double strand) [8-mer CGCCCACC]”, the binding signal (PBM E-score (-0.5 to 0.5)) in data set [8] and in data set [7] was 0.484 throughout.
As for “CGCCCCCC (double strand) [8-mer CGCCCCCC]”, the binding signal (PBM E-score (-0.5 to 0.5)) in data set [7] is 0.487.
Turning to “CGGCCGCC (double strand) [8-mer CGGCCGCC]”, the binding signal (PBM E-score (-0.5 to 0.5)) in data set [8] was determined as 0.489.
“CGGCCGGC (double strand) [8-mer CGGCCGGC]” yielded a binding signal (PBM E-score (-0.5 to 0.5)) in data set [8] of 0.486.
In data set [8], “CGGCGGCC (double strand) [8-mer CGGCGGCC]” had a binding signal (PBM E-score (-0.5 to 0.5)) of 0.485.
Still for that read-out and setting: with “CGGTCGGC (double strand) [8-mer CGGTCGGC]” the figure was 0.487; with “CGGTCGTC (double strand) [8-mer CGGTCGTC]”, 0.483; with “CGGTGGGC (double strand) [8-mer CGGTGGGC]”, 0.491.
On the same count and under the same terms, as for “CGGTGGTC (double strand) [8-mer CGGTGGTC]”, the figure is 0.481.
As for “CTCCCCCC (double strand) [8-mer CTCCCCCC]”, the binding signal (PBM E-score (-0.5 to 0.5)) in data set [4] amounted to 0.497.
“GAAACTTC (double strand) [8-mer GAAACTTC]” had a binding signal (PBM E-score (-0.5 to 0.5)) in data set [2] of 0.481.
Turning to “GAACTGTA (double strand) [8-mer GAACTGTA]”, the binding signal (PBM E-score (-0.5 to 0.5)) in data set [3] is 0.492.
With “GACGTGGC (double strand) [8-mer GACGTGGC]”, the binding signal (PBM E-score (-0.5 to 0.5)) in data set [5] worked out at 0.494.
In data set [3], “GACTGTAC (double strand) [8-mer GACTGTAC]” yielded a binding signal (PBM E-score (-0.5 to 0.5)) of 0.49.
In data set [4], “GCCCCCCC (double strand) [8-mer GCCCCCCC]” returned a binding signal (PBM E-score (-0.5 to 0.5)) of 0.496.
“GCCCCCGC (double strand) [8-mer GCCCCCGC]” showed a binding signal (PBM E-score (-0.5 to 0.5)) in data set [6] of 0.489.
Take “GCGGCCGC (double strand) [8-mer GCGGCCGC]”: in data set [8], the binding signal (PBM E-score (-0.5 to 0.5)) turned out to be 0.488.
For the sequence “GGGGGAGA (double strand) [8-mer GGGGGAGA]”, the binding signal (PBM E-score (-0.5 to 0.5)) in data set [4] worked out at 0.493.
“GGGGGGAA (double strand) [8-mer GGGGGGAA]” had a binding signal (PBM E-score (-0.5 to 0.5)) in data set [4] of 0.493.
As to “GGGGGGGA (double strand) [8-mer GGGGGGGA]”, the binding signal (PBM E-score (-0.5 to 0.5)) in data set [4] came out at 0.499.
Turning to “GGTCGGCA (double strand) [8-mer GGTCGGCA]”, the binding signal (PBM E-score (-0.5 to 0.5)) in data set [8] is 0.481.
As for “GGTGGGCA (double strand) [8-mer GGTGGGCA]”, the binding signal (PBM E-score (-0.5 to 0.5)) in data set [8] came to 0.487.
